# Test results as given in the nanobody polyreactivity screen of Harvey et al. (2022).
# Assay: yeast display, Sf9 membrane polyspecificity reagent, FACS + sequencing; frameworks hold sequencing errors
# Method in brief: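 Using colony PCR, genes from sorted yeast display clones were amplified, then sequenced on MiSeq at 2 × 250 and filtered by CDR length. The clones had been stained with 10% biotinylated, detergent-solubilized Sf9 membrane reagent for 1 hour at 4 °C and sorted by FACS into low and high (top ~1%) gates on anti-HA and streptavidin fluorescence. Polyreactivity labels come from the gate of origin.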
row,Sequence,polyreactivity (PSR sort gate)
1,QVQLVESGGGLVQEGGSLRLSCASSGSTFRYNVMGWYRQAPGKERELVAAITRRGSRTYYADSVKGRFTISRDNAKNTVYLHMNSLKPADTAVYDCNKNSLSVPANDDYWGQGTQVTVSS,high polyreactivity
2,QVQLGESGGGLVQAGGSLRLSCAASGIIIFLYAMGWYRPAPGKEREFVAAINYSSGSTYYADSVKGRFTISRDNAKNTVYLQMNSLKPEDTAVYYCAADPVHRYPGTGGYWGQGTQVTVSS,low polyreactivity
3,QVQLVESGGGLDQARGSLRLSCAASGRTFWTNVMGWYRQAPGKERELVAAITSSTDSTYYADSVKGRFTISLDNAKNTVYLQMNSLKPEDTAVYYCATVVRLYRGRYRYDYWGQGTQVTVSS,high polyreactivity
4,QVQLVESGGGLVQAGGSLRLSCAASGRIFQRYAMGWYRQAPGKERELVATITRSGGSTYYADSVKGRFTISRDNAKNTVYLQMNSLKPEDTAVFYCSRQWYRYGMGYWGQGTQVSVSS,high polyreactivity
5,QVQLVESGGGLVQAGGSLRLSCAGSGSTFVYNAMGWYRQAPGKERELVAAITAAGGRTYYADSVKGRFTISRDTAKNTVYLQMNSLKPEDTAVYYCYTVRPHGMDYWGQGTQVTVSS,high polyreactivity
6,QVQLVESGGGLVQAGGSLRLSCAASGFTSSNNAMGWYRQAPGKERELFAAISSSGGRTYYADSVKGRFTISRDNAKNTVYLQMNSLQPEDTAVYFCAATGYVGGIYGHYPRGYWGQGTQVTVSS,high polyreactivity
7,QVQLVESGGGLVQAGGSLRLSCAASGRILTGYAMGWYRQAPGKARELVAAISNDTDSTHYADSVKGRFTISRDNAKNTVYLQMNSLKPEDTAVYYCATDAPLQKRWRRFDYWGQGTQVTVSS,low polyreactivity
8,QVQLVESGGGLVQAGGSLRLSCAASGRTFIGNAMGWYRQAPGKERELVAGIDSDGSTNYADSVKGRFTISRDNAKNTVYLQMNSLKPEDTAVYYCAAVQGYRFYEYYYWGQGTQVTVSS,low polyreactivity
9,QVQLVESAGGLVQAGGSLRLSCAASGFIFARYAMGWYRQAPGKERELVAAISSSGGITYYADSVKGRFTISRDNAKNTVYFQMNSLKPEDTAVYYCNAESYYFYWPVYSYDYWGQGTQVTVSS,low polyreactivity
10,QVQLVESGGGLVQAGGSLRLSCAASGSTFYFYAMGWYRQAPGKERELVAAISQSGGTTYYADSVKGRFTISRDNAKNTVFLQMNSLKPEDTAVYYCNADTDTWYTEYDYWGQGTQVTVSS,low polyreactivity
11,QVQHVESGGGLVQAGGSLRLSCAASGSIFRWYAMGWYRQAPGKERELVAGITSGGSTNYADSVKGRFTISRDNAKNTVYLQMNSLKPEDTAVYYCNARRWVGSRYDYWGQGTQVTVSS,high polyreactivity
12,QVQHVESGGGLGQAGGSLRLSCAASGIIFPRYKAWYRPAPGKDRELVAAIRWSSDDTNYADSVKGRFTISRDNAKNTVYLQMNSLKPEDTAVYYCAADSYYDRTIQFEFSARTYDYWVQGTQVTVSS,low polyreactivity
13,QVQLVESGGGLVQAGGSLRLICAASGSISYEYAMGWYRQAPGKERELVASIDSDGAGTYYADSVKGRFTISLDNAKNTVYLQMNSLKPEDTAVYYCNSEWYYPYYYSRMDYWGQGTQVTVSS,low polyreactivity
14,QVQLVESGGGLVQAGGSLRLICAASGFIFWSNAMGWYRQAPGKEMELVAAITWNGGDTYYADSVKGRFTISRDNAKNTVYLQMNSLKPEDTAVYYCAAVHSRRARYDYWGQGTQVTVSS,low polyreactivity
15,QVQLVESGGGLVQAGGSLRLSCAASGRTSVWYTMGWYRQAPGKEREFVASITGSGTCYADSVKGRFTISRDNAKNTVYLQMNSLKPEDTAVYYCAAGGKYYTFGFRGGTYDYWGQGTQVTVSS,high polyreactivity
16,QVQLVESGGGLVQAGGSLRLSCAASGSIFQSYDMGWSRQAPGKERELVAAITRSGGRTYYAASVKGRFTISRDNAKNTVYLQMNSLKPEDTAVYYCAAFGWGYGYWGQGTQVTVSS,high polyreactivity
17,QFQLVESGGRLVQAGGSLRLSCAASGFIFWYNAMGWYRQAPGKEREFVAAISSGGSTTYADSVKGRFTISRDNAKNTVYLQMNSLKPEDTAVSYCAAGSYDYDYWGQGTQVTVSS,low polyreactivity
18,QVQLVESVGGLDQAGGSLRLSGAASGSIFAHYAMGWYRQAPGKETELVARISWSGGSTYYADSVKGRFTISRDNAKNTVYLQMNSLKPEDTAVYYCARAGRSWDTLYKYYLEHDYWGQGTQETVSS,low polyreactivity
19,QDQLVESGRGLVQAGGSLRLSCAASGSTFSYYAIGWYRQAPGKERELVAAISRRGGSTYYADSVKGRFTISRDNAKNSVYLQMNSLKPEDTAVYYCNRVTYTGYDSWGQGTQVTVSS,high polyreactivity
20,QVQLVESGGGLVQAGGSLRLSCAASGFTFGSYTMGWYRQAPGKERELVAAITGRGGSTYYADSVKARFTISRDNAKNTVYLQMNSLKPVDTAVYYCAGRRGTTYVGYDYWGQGTQVTVSS,high polyreactivity
21,QVQLVESGGGLVQAGGSLRLSCAASGSTSTGNAMGWYRKAPGKERELVAAITSGGNTYYADSVKGRFTISRDNAKNTVYLQMNSLKPEDTAVYYCAAASPGPWRYDYWGQGTQVTVSS,high polyreactivity
22,QVQLVESGGGLVQAGGSRRLSCAASGSIFSGNTMGWYRQAPGKERELVAAISSGGSTKYADSVKGRFTISRDNAKNTVYFQMNRLNPEDSAVYFCGATSSYRLRDRHRIWYGYWGQGTEVTVSS,high polyreactivity

row,Sequence,polyreactivity (PSR sort gate)
1,QVQLVESGGGLVQAGGSLRLSCAASGSIFPGYAMGWYRQAPGNERELVAAISSGGNTHYADSVKGRFTISRDNAKNTVYLQMNSLKPEDTAVYYCAASYDYTYYWGQGTQVTVSS,low polyreactivity
2,QVQLEESGGGLVQAGGSLRLSCAASGRIFIKNAMGWYRQAPGKVRELVAAISARGGSTYYADSVKGRFTISRDIAKNTVYLEMNSLKPEDTAVYDCAVDVYEPRYRRPLHHDYWGQGTQVTVSS,low polyreactivity
3,QVQLVESGGGLVQAGGSLRLSCAASGSIFPHYAMGWYRQAPGKERELVASITYDGDSTYYADSVKGRFTISRDNAKNTVYLQMNSLKPEDTAVYYCAADYYYVYSSFGHYYWGQGTQVTVSS,low polyreactivity
4,QVQLVESGGGLVQAGGSLRLSCAASGRIFFLNTMGWYRQAPGKERELVAAITRGGSTYYADSVKGRFTISRDNAKNTVYLHMNSLKPEDTAVYYCAADVYGGIGYDYWGQGTQVTVSS,low polyreactivity
5,QVHLVESGGGLVQAGGSLRLSCAASGRTFRRYAMGWYRQAPGKERELVAGISRSGVSTYYADSVKGRFTISRDNAKNTVYLQMNSLKPEDTAVYYCATRYVPTLRSSGDYCGQGTQVTVSS,high polyreactivity
6,QVQLVESGGGLVQAGGSLRLSCAASGRIFYHNAMGWYRQAPGKERELVAVISWSGTRTYYADSVKGRFTISRDNAKNTVYLQMNSLKPEDTAVYYFNVEPYYTSYWIYPYIYTYDYWGQGTQVTVSS,high polyreactivity
7,QVQLVESGGGLVQAGGRLRLSSAASRIIFRDNDMGWYRQAPGKERELVASISDSGGSTYYADSVKGRFTISRDNAKNTVYLQKNSLKSEATAVYYCAAPYLSLYLYDYWGQGTQVTVSS,low polyreactivity
8,QVQLVESGGGLVQAGGSLRLSCAASGGIFKRNTMGWYRLAPGKERELVAAISRSGGSTYYADSVKGRFTISRDNAKNTVYLQMNSLKPEDTAVYYCARRFPYNYYVYGEDYWGQGTQVTVSS,high polyreactivity
9,QVQLVESGGGLVQPGGSLRLSCAASGRTFRTNAMGWSRQEPGKERELVAAISTGGGITNYADSVKGRFTISRDNAKNTVYLQMNCLKPEDTAVYYCAARLAYNAIGYYYWGQGTQVTVSS,low polyreactivity
10,QVQLVESGGGLVQAGGSLRLSCAASGSTFNIYAMGWYRQAPGKERELVATISWTGGRTFYADSVKGRFTISRDNAKNTVYLQMNSLKPEDTAVYYCNKASTGGYDYWGQGTQVTVSS,high polyreactivity
11,QVQLVESGGGLVQAGGSLRLSCAASGSTFGFNALGWYRQAPGKERELVAAITFSGGTTYYADSVKGRFTISRDNAKNTVYLQMNSLKPEDTAVYYCNADVKRDRVWGGDYWGQGTQVTVSS,low polyreactivity
12,QVQLVESGGGLVQAGGSLRLSFAASGRTFPDNAMGWYRQAPGTQRELVATISWSGGSTYYADSVKGRFTISRDNAKNTVYLQMNSLKPEDTAVYYCARDSLQVFYPYASDDYWGQGTQVTVSS,low polyreactivity
13,QVQLVESGGGLVQAGGSLRLSCAASGRTFSRYAMGWYRQAPWKERELVAAITSRGGNTYYADSVKGRFTISRDNAKNTVYLQMNSLIPEDTAVYYCNKVVRRGGGKNPDYDYWGQGTQVTVSS,high polyreactivity
14,QVQLVESGGGLVQAGGSLRLSCAASGLTFERYAMGSYIQAPGKERELVAAISGSGGSTYYADSVKGRFTISRDNAKNTVYLQMNSLKPEDTAVYYCAAYPTVWYDYWGQGTQVTVSS,high polyreactivity
15,QFQLVESGGGLVQAGGSLRLSCASSGSIFYGNAMVCYRQAPGKERELVADIRWSGGSTYYADSVKGRFTISRDNAKNTVYLQMNSLKPEDTAVYYCAVRSPYRWRYASRYHEYDYWGQGTQVTVSS,low polyreactivity
16,QVQLVESGGGLDQAGGSLRLSCAASGRILGYNALGWYRQAPGKERELVAAIRTGTTNYADSVKGRFTISRDNAKNTVYLQMNSLKPEDTAVYYCAALRPYNEGSSHLFRYDYWGQGTQVTVSS,low polyreactivity
17,QGQLVESGGGLLQAGGSLSLSCAATGFTFTENAMGWYRQEPGKEREFVAYISSSGDSTYYSDSVKGRFTISRDNAKNTVYLQMNSLKPEDTAVYYCYRDLVYDYYYVPQPSRFDYWGQGTQVTLSS,high polyreactivity
18,QVQLQERGDGLLQAVGSLRLSFAESGYISGYYYMGWYRQAPGKDRELVAGIDAFGSSTNYADCVKGRFTISRDNAKNTVYLEMNSLKPEDTAVYYCAASPDGERLFSYWGQGTQVTVSS,low polyreactivity
19,QVQLVESGGGLVQAGGSLRLSCAASGSTFYYYAMGWYRQAPGKERELVASISASGGNTYYADSVKGRFTISRDNAKNTVYLQMNSLKPEDTAVYYCAARARRSQSISLKYYYWGQGTQVTVSS,high polyreactivity
20,QVQLVESWGGLVQAGGSHRLSCAASGRTFGIYAMGWYRQAPGKERELVATISWRGGSTYYADSVKGRFTISRDNAKNTVYLQMNSLKPEDTAVYYCAAGYYPYWGQGTQVTVSS,low polyreactivity
21,QVQLVESGGGLVQAGGSLRLSCAASGRTFKYNAMGWYRQAPGKERELVATISGSGGRTYYADSVKGRFTISRDNAKNTVYLQMNSLTPEDTAVYYCAAVPSYHSTSPFYYWGLGTQVTVSS,high polyreactivity
